No end group written: not given here.
Assays:
Test in all cases: two-hybrid
[1] = biological target: PS1-loop C T291A (LexA fusion bait) (human, UniProt P49768 264-294, T291A)
[2] = biological target: PS1-loop C (T281P, T291A) (LexA fusion bait) (human, UniProt P49768 264-294, T281P | T291A)
[3] = biological target: PS1-loop C (T281P, L282I) (LexA fusion bait) (human, UniProt P49768 264-294, T281P | L282I)
[4] = biological target: PS2-loop B (LexA fusion bait) (human, UniProt P49810 270-319)
[5] = biological target: PS2-loop C (LexA fusion bait) (human, UniProt P49810 270-300)
[6] = biological target: T1, PS2-loop D (LexA fusion bait) (human, UniProt P49810 301-319, also: LexA fusion bait)
T1 chain (looked up): TVGMAKLDPSSQGALQLPY

[7] = biological target: PS1-loop C (LexA fusion bait) (human, UniProt P49768 264-294)
[8] = biological target: PS1-loop C T281P (LexA fusion bait) (human, UniProt P49768 264-294, T281P)

B1: calmyrin (clone 7, full-length cDNA in pJG4-5) (natural protein, human, UniProt Q99828 1-191, looked up)
chain: MGGSGSRLSKELLAEYQDLTFLTKQEILLAHRRFCELLPQEQRSVESSLRAQVPFEQILSLPELKANPFKERICRVFSTSPAKDSLSFEDFLDLLSVFSDTATPDIKSHYAFRIFDFDDDGTLNREDLSRLVNCLTGEGEDTRLSASEMKQLIDNILEESDIDRDGTINLSEFQHVISRSPDFASSFKIVL
[1]
  interaction relative to PS2-loop C: ~0.33 fold of the PS2 level
[2]
  interaction relative to PS2-loop C: ~2 fold of the wild-type PS2-loop bait
[3]
  interaction relative to PS1-loop C T281P: 1.7 fold of T281P alone
[4]
  fold increase in β-galactosidase activity over the lamin B control: 8.5 fold
[5]
  fold increase in β-galactosidase activity over the lamin B control: 74 fold
[6]
  fold increase in β-galactosidase activity over the lamin B control: 2.2 fold
[7]
  fold increase in β-galactosidase activity over the lamin B control: 5.8 fold
[8]
  interaction relative to PS2-loop C: ~0.5 fold of the PS2 level
